Laboratory results taken from the supplement of paper PMC11780869.

Test system: Bacillus subtilis
Experiment: cleaved RNA product abundance (RNA/gDNA barcode ratio) relative to median wild-type variant (ratio to wild type); higher = more accumulation of the downstream cleavage product
Conditions: cleavage site: cggR-gapA (positions -7 to +36 mutated)
Experimental: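 MPRA in B. subtilis. Mutagenized RNase Y cleavage-site regions (9% mutation rate) were inserted into a barcoded reporter mRNA (truncated aprE or tetM). Cells were grown in LB at 37°C to OD600 0.3. The cleaved RNA isoform was gel-purified and its barcodes counted; the RNA:gDNA barcode ratio was normalised to the median wild-type variant, and the median over barcodes is reported per variant. The printed sequence is the variable window only; the reporter flanks are not printed.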

[1] = experiment (reporter, strain, medium): exp 4a: truncated aprE reporter, strain BJT201 with 2% xylose (RNase J1 expressed)
[2] = experiment (reporter, strain, medium): exp 2b: truncated aprE reporter, strain BJT200

| Sequence | cleaved RNA product abundance [1] | cleaved RNA product abundance [2] | cleaved RNA product abundance (experiment (reporter, strain, medium): exp 6: tetM reporter, strain 168) |
| --- | --- | --- | --- |
| ACAGACGAAGGAGCCGCAAAGAAGTCATTAAGGGATGAATAATCCTTCAATATAAATATCTCTCACTTATTTAAA | 0.189 | – | – |
| ACAGACGAAGGAGCCGCAAAGAAGTCATTAAGGGATGAATAATCGCTCAATATAAATATCTCTCACTTATTTAAA | 0.107 | – | – |
| ACAGACGAAGGAGCCGCAAAGAAGTCATTAAGGGATGAATAATGCCTCAATATAAATATCTCTCACTTATTTAAA | 0.13 | – | – |
| ACAGACGAAGGAGCCGCAAAGAAGTCATTAAGGGATGATTAATCCCTCAATATAAATATCTCTCACTTATTTAAA | 0.217 | – | – |
| ACAGACGAAGGAGCCGCAAAGAAGTCATTAAGGGATGTATAATCCCTCAATATAAATATCTCTCACTTATTTAAA | – | 0.16 | – |
| ACAGACGAAGGAGCCGCAAAGAAGTCATTAAGGGATTAATAATCCCTCAATATAAATATCTCTCACTTATTTAAA | 0.236 | – | – |
| ACAGACGAAGGAGCCGCAAAGAAGTCATTAAGGTATGAATAATCCCTCAATATAAATATCTCTCACTTATTTAAA | – | 0.0941 | – |
| ACAGACGAAGGAGCCGCAAAGAAGTCATTAAGTGATGAATAATCCCTCAATATAAATATCTCTCACTTATTTAAA | 0.0976 | – | – |
| ACAGACGAAGGAGCCGCAAAGAAGTCATTAATGGATGAATAATCCCTCAATATAAATATCTCTCACTTATTTAAA | 0.171 | 0.0927 | – |
| ACAGACGAAGGAGCCGCAAAGAAGTCTTTAAGGGATGAATAATCCCTCAATATAAATATCTCTCACTTATTTAAA | 0.181 | – | – |
| ACAGACGAAGGAGCCGCAAAGAAGTGAATAAGGGATGAATAATCCCTCAATATAAATATCTCTCACTTATTTAAA | 0.296 | – | – |
| ACAGACGAAGGAGCCGCAAAGAAGTGACTAAGGGATGAATAATCCCTCAATATAAATATCTCTCACTTATTTAAA | 0.344 | – | – |
| ACAGACGAAGGAGCCGCAAAGAAGTGATAAAGGGATGAATAATCCCTCAATATAAATATCTCTCACTTATTTAAA | 0.223 | – | – |
| ACAGACGAAGGAGCCGCAAAGAAGTGATGAAGGGATGAATAATCCCTCAATATAAATATCTCTCACTTATTTAAA | – | 0.446 | – |
| ACAGACGAAGGAGCCGCAAAGAAGTGATTAAAGGATGAATAATCCCTCAATATAAATATCTCTCACTTATTTAAA | 0.19 | – | – |
| ACAGACGAAGGAGCCGCAAAGAAGTGATTAACGGATGAATAATCCCTCAATATAAATATCTCTCACTTATTTAAA | 0.0991 | 0.129 | – |
| ACAGACGAAGGAGCCGCAAAGAAGTGATTAAGAGATGAATAATCCCTCAATATAAATATCTCTCACTTATTTAAA | 0.133 | 0.0989 | – |
| ACAGACGAAGGAGCCGCAAAGAAGTGATTAAGCGATGAATAATCCCTCAATATAAATATCTCTCACTTATTTAAA | 0.131 | 0.115 | – |
| ACAGACGAAGGAGCCGCAAAGAAGTGATTAAGGAATGAATAATCCCTCAATATAAATATCTCTCACTTATTTAAA | 0.115 | – | – |
| ACAGACGAAGGAGCCGCAAAGAAGTGATTAAGGCATGAATAATCCCTCAATATAAATATCTCTCACTTATTTAAA | – | 0.11 | – |

| Sequence | cleaved RNA product abundance [1] | cleaved RNA product abundance [2] | cleaved RNA product abundance (experiment (reporter, strain, medium): exp 6: tetM reporter, strain 168) |
| --- | --- | --- | --- |
| ACAGACGAAGGAGCCGCAAAGAAGTGATTAAGGGACGAATAATCCCTCAATATAAATATCTCTCACTTATTTAAA | 0.322 | – | – |
| ACAGACGAAGGAGCCGCAAAGAAGTGATTAAGGGATAAATAATCCCTCAATATAAATATCTCTCACTTATTTAAA | 0.246 | – | – |
| ACAGACGAAGGAGCCGCAAAGAAGTGATTAAGGGATGAAAAATCCCTCAATATAAATATCTCTCACTTATTTAAA | 0.399 | – | – |
| ACAGACGAAGGAGCCGCAAAGAAGTGATTAAGGGATGAATAACCCCTCAATATAAATATCTCTCACTTATTTAAA | 0.163 | – | – |
| ACAGACGAAGGAGCCGCAAAGAAGTGATTAAGGGATGAATAATACCTCAATATAAATATCTCTCACTTATTTAAA | 0.0889 | 0.105 | – |
| ACAGACGAAGGAGCCGCAAAGAAGTGATTAAGGGATGAATAATCCATCAATATAAATATCTCTCACTTATTTAAA | 0.257 | 0.27 | – |
| ACAGACGAAGGAGCCGCAAAGAAGTGATTAAGGGATGAATAATCCCACAATATAAATATCTCTCACTTATTTAAA | 0.226 | – | – |
| ACAGACGAAGGAGCCGCAAAGAAGTGATTAAGGGATGAATAATCCCGCAATATAAATATCTCTCACTTATTTAAA | 0.124 | – | – |
| ACAGACGAAGGAGCCGCAAAGAAGTGATTAAGGGATGAATAATCCCTAAATATAAATATCTCTCACTTATTTAAA | 0.388 | – | – |
| ACAGACGAAGGAGCCGCAAAGAAGTGATTAAGGGATGAATAATCCCTCAAAATAAATATCTCTCACTTATTTAAA | 0.258 | – | – |
| ACAGACGAAGGAGCCGCAAAGAAGTGATTAAGGGATGAATAATCCCTCAACATAAATATCTCTCACTTATTTAAA | – | 0.293 | – |
| ACAGACGAAGGAGCCGCAAAGAAGTGATTAAGGGATGAATAATCCCTCAATATAAAAATCTCTCACTTATTTAAA | 0.728 | – | – |
| ACAGACGAAGGAGCCGCAAAGAAGTGATTAAGGGATGAATAATCCCTCAATATAAATAACTCTCACTTATTTAAA | 0.522 | – | – |
| ACAGACGAAGGAGCCGCAAAGAAGTGATTAAGGGATGAATAATCCCTCAATATAAATATCTCTCACTTATTTAAA | 0.391 | 0.318 | 0.274 |
| ACAGACGAAGGAGCCGCAAAGAAGTGATTAAGGGATGAATAATCCCTCACTATAAATATCTCTCACTTATTTAAA | 0.0759 | – | – |
| ACAGACGAAGGAGCCGCAAAGAAGTGATTAAGGGATGAATAATCCCTCTATATAAATATCTCTCACTTATTTAAA | 0.377 | – | – |
| ACAGACGAAGGAGCCGCAAAGAAGTGATTAAGGGATGAATAATCCCTTAATATAAATATCTCTCACTTATTTAAA | 0.74 | – | – |
| ACAGACGAAGGAGCCGCAAAGAAGTGATTAAGGGATGAATAATCCTTCAATATAAATATCTCTCACTTATTTAAA | 0.342 | 0.337 | – |
| ACAGACGAAGGAGCCGCAAAGAAGTGATTAAGGGATGAATAATCGCTCAATATAAATATCTCTCACTTATTTAAA | 0.0548 | – | – |
| ACAGACGAAGGAGCCGCAAAGAAGTGATTAAGGGATGAATAATCTCTCAATATAAATATCTCTCACTTATTTAAA | 0.306 | – | – |

| Sequence | cleaved RNA product abundance [1] | cleaved RNA product abundance [2] | cleaved RNA product abundance (experiment (reporter, strain, medium): exp 6: tetM reporter, strain 168) |
| --- | --- | --- | --- |
| ACAGACGAAGGAGCCGCAAAGAAGTGATTAAGGGATGAATACTCCCTCAATATAAATATCTCTCACTTATTTAAA | 0.354 | – | – |
| ACAGACGAAGGAGCCGCAAAGAAGTGATTAAGGGATGAATAGTCCCTCAATATAAATATCTCTCACTTATTTAAA | 0.274 | 0.184 | – |
| ACAGACGAAGGAGCCGCAAAGAAGTGATTAAGGGATGAATTATCCCTCAATATAAATATCTCTCACTTATTTAAA | 0.366 | – | – |
| ACAGACGAAGGAGCCGCAAAGAAGTGATTAAGGGATGAGTAATCCCTCAATATAAATATCTCTCACTTATTTAAA | 0.285 | – | – |
| ACAGACGAAGGAGCCGCAAAGAAGTGATTAAGGGATGCATAATCCCTCAATATAAATATCTCTCACTTATTTAAA | 0.51 | – | – |
| ACAGACGAAGGAGCCGCAAAGAAGTGATTAAGGGATTAATAATCCCTCAATATAAATATCTCTCACTTATTTAAA | 0.325 | 0.459 | – |
| ACAGACGAAGGAGCCGCAAAGAAGTGATTAAGGGCTGAATAATCCCTCAATATAAATATCTCTCACTTATTTAAA | 0.309 | – | – |
| ACAGACGAAGGAGCCGCAAAGAAGTGATTAAGGGTTGAATAATCCCTCAATATAAATATCTCTCACTTATTTAAA | 0.263 | 0.15 | – |
| ACAGACGAAGGAGCCGCAAAGAAGTGATTAAGGTATGAATAATCCCTCAATATAAATATCTCTCACTTATTTAAA | 0.113 | 0.0827 | – |
| ACAGACGAAGGAGCCGCAAAGAAGTGATTAAGTGATGAATAATCCCTCAATATAAATATCTCTCACTTATTTAAA | 0.0876 | 0.114 | – |
| ACAGACGAAGGAGCCGCAAAGAAGTGATTAATGGATGAATAATCCCTCAATATAAATATCTCTCACTTATTTAAA | 0.108 | 0.0996 | – |
| ACAGACGAAGGAGCCGCAAAGAAGTGATTACGGGATGAATAATCCCTCAATATAAATATCTCTCACTTATTTAAA | 0.396 | – | – |
| ACAGACGAAGGAGCCGCAAAGAAGTGATTTAGGGATGAATAATCCCTCAATATAAATATCTCTCACTTATTTAAA | 0.386 | – | – |
| ACAGACGAAGGAGCCGCAAAGAAGTTAAAAAAGGATGAATAATCCCTCAATATAAATATCTCTCACTTATTTAAA | 0.227 | – | – |
| ACAGACGAAGGAGCCGCAAAGAAGTTAAAAAGGGATGAATAATCCCTCAATATAAATATCTCTCACTTATTTAAA | 0.392 | 0.268 | – |
| ACAGACGAAGGAGCCGCAAAGAAGTTAATAAAGGATGAATAATCCCTCAATATAAATATCTCTCACTTATTTAAA | 0.215 | 0.143 | – |
| ACAGACGAAGGAGCCGCAAAGAAGTTAATAACGGATGAATAATCCCTCAATATAAATATCTCTCACTTATTTAAA | 0.177 | – | – |
| ACAGACGAAGGAGCCGCAAAGAAGTTAATAAGAGATGAATAATCCCTCAATATAAATATCTCTCACTTATTTAAA | 0.133 | – | – |
| ACAGACGAAGGAGCCGCAAAGAAGTTAATAAGCGATGAATAATCCCTCAATATAAATATCTCTCACTTATTTAAA | 0.104 | 0.0808 | – |
